The supplement of paper PMC10724198
± gives the standard deviation of the averaged measurements.

Tested on: Saccharomyces cerevisiae
Test: protein stability index of tFT-peptide fusion (C-terminal peptide) (PSI (0-1 scale)); higher = more stable (slower turnover)
Details: genetic background: wild type; temperature: 30 C
Experimental: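 Multiplexed protein stability (MPS) profiling in S. cerevisiae. Random 12-aa peptides (tFT-X12 library) are fused to the C-terminus of a sfGFP-mCherry tandem fluorescent timer, after mCherry and a GGGS linker. Cells are FACS-sorted into 8 mCherry/sfGFP bins and deep-sequenced. The protein stability index (PSI) is the read-weighted bin average, scaled from 0 (unstable) to 1 (stable). Only peptides with >10 reads are reported; cells were grown at 30 °C in SC-His with glucose.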
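Further: PSI is a weighted mean of sequencing reads over stability bins, variants kept only with over 10 reads, mCherry proximal and sfGFP distal, peptide attached via GGGS linker.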

Sequence	protein stability index
GSVRCGLRVRVG	0.605 ± 0.047
GSWIKFVCRRAG	0.731 ± 0.0095
GSWLGGRTLAGI	0.707 ± 0.036
GTACIIVSGYGL	0.643 ± 0.016
GTCWAGAMGGVG	0.675 ± 0.042
GTDLKGFPFLTF	0.688 ± 0.014
GTEKESRRKREQ	0.698 ± 0.042
GTGERHIASEEK	0.728 ± 0.013
GTGMHEGEPGEV	0.686 ± 0.046
GTGRGRAGARCK	0.679 ± 0.018
GTRAGGRSKRER	0.735 ± 0.11
GTRWPLVAPRER	0.7254 ± 0.0045
GTVGRPNATGKV	0.742 ± 0.088
GVAEFDGWFCLG	0.7329 ± 0.0022
GVAWGCVSRVFG	0.68 ± 0.045
GVCLGCWCWWVG	0.604 ± 0.044
GVCVLGGWSGFW	0.758 ± 0.062
GVDPVGVLFCGA	0.656 ± 0.074
GVEGAEFVEAGT	0.699 ± 0.041
GVEGCKRAGKLR	0.651 ± 0.033
GVERLGGVLYVL	0.6274 ± 0.0015
GVFWGYGLRDGV	0.731 ± 0.073
GVGCGGACRPVG	0.662 ± 0.09
GVGFGCGGVWME	0.731 ± 0.012
GVGFGGGGVWME	0.746 ± 0.031

Sequence	protein stability index
GVGGGEAGVIGR	0.769 ± 0.041
GVGGGGRLMCGV	0.667 ± 0.04
GVGGGGVGLWLG	0.656 ± 0.025
GVGSGEASDGCT	0.626 ± 0.12
GVGWVWGGVWAG	0.744 ± 0.045
GVGYRLGACPDR	0.695 ± 0.053
GVIQARRSASSS	0.689 ± 0.043
GVLEEVGPGLFL	0.78 ± 0.14
GVLGPSFLSVAV	0.584 ± 0.0082
GVLGRVRLGWVG	0.671 ± 0.012
GVLKQGSLPCRD	0.706 ± 0.14
GVLSYCGFVTFG	0.603 ± 0.02
GVMCRTGSGMVM	0.711 ± 0.021
GVNDRLIKMSCA	0.667 ± 0.033
GVPFPGPNTLIL	0.73 ± 0.075
GVRGLLAGGGVW	0.709 ± 0.027
GVRRSRAARVRK	0.777 ± 0.18
GVTYEDFWGYCG	0.797 ± 0.018
GVVGGGGEAWRE	0.794 ± 0.038
GVVGTVEGGATG	0.658 ± 0.037
GVVGVWRGAGWR	0.717 ± 0.041
GVVSSHVDMIGL	0.668 ± 0.0067
GVVVGCGYGLVG	0.665 ± 0.04
GVVWMSCGGGGG	0.7684 ± 0.0017
GVWEGLQLGLIS	0.7826 ± 0.0032

Sequence	protein stability index
GVWGGGGGWGVA	0.688 ± 0.0096
GVWPVGWWCRGR	0.748 ± 0.047
GWCACFMGSGWG	0.703 ± 0.06
GWCRSYVAFGVY	0.64 ± 0.052
GWDRDQKPENKE	0.738 ± 0.045
GWFTMLTGAFAE	0.7249 ± 0.003
GWGGGAAQKCGQ	0.7 ± 0.039
GWGGGGFRVVVG	0.782 ± 0.049
GWGMVLYRNMML	0.6039 ± 0.0046
GWGRGGFRVVVG	0.712 ± 0.02
GWLASPHFPYAY	0.6883 ± 0.001
GWLIWRVYGGGG	0.654 ± 0.014
GWSRCVFGGYRL	0.7 ± 0.022
GWSSTLTFLGGA	0.701 ± 0.0078
GWTQFVLHSMFG	0.72 ± 0.088
GWVPCGSWRVPG	0.631 ± 0.038
GWVQRGAEARRE	0.705 ± 0.047
GWWGCGASVCGV	0.72 ± 0.15
GYARESERFGIH	0.694 ± 0.011
GYFHADYIPLSY	0.7474 ± 0.0029
GYGPSFALRPDS	0.651 ± 0.026
GYGWGVGWGFGR	0.673 ± 0.028
GYMRMGLCVYSD	0.596 ± 0.092
GYRGMERGEGGG	0.723 ± 0.068
GYTSRGISFLRA	0.698 ± 0.042

Sequence	protein stability index
GYVVVGGGGGLG	0.717 ± 0.039
HAQRTSSRRAKS	0.711 ± 0.019
HARFRPRKAVGD	0.67 ± 0.042
HATFSLFLASCY	0.625 ± 0.011
HCLIPGEIHRIS	0.6741 ± 0.0037
HCRDCLVLIQFN	0.664 ± 0.048
HCSLRPRPNHAR	0.746 ± 0.032
HDHEARHSDSLN	0.658 ± 0.026
HDRRGLRRISAT	0.647 ± 0.0084
HEHFRDRAGPAS	0.636 ± 0.017
HEVRGVFWNPRF	0.712 ± 0.053
HFPIPPSLFFRP	0.631 ± 0.019
HGLFGRACRASH	0.66 ± 0.043
HGTVQNIVARYV	0.611 ± 0.026
HHGCATVTSRAS	0.654 ± 0.042
HHPKTCHHLSRA	0.6853 ± 0.0037
HHRNNTPLNHSY	0.63 ± 0.007
HIFQRMCKDMQL	0.6296 ± 0.0037
HIKAEKRKKKTS	0.608 ± 0.024
HISRTLVDADIG	0.66928 ± 8e-05
HISTQREEIDPA	0.6506 ± 0.00086
HITTNHLPTSCD	0.73 ± 0.039
HLGIGTRVWEFG	0.716 ± 0.061
HLLLGPRSPPSP	0.661 ± 0.022
HLPASLHLDYSI	0.675 ± 0.043

Sequence	protein stability index
HLPPFLRPPFPL	0.686 ± 0.017
HLSNPRPPPPTR	0.703 ± 0.016
HNMSDARRPSNI	0.702 ± 0.021
HPCKKEKLYHLK	0.594 ± 0.091
HPDAGTAARDTD	0.648 ± 0.092
HPFGHSFLTAPF	0.793 ± 0.16
HPGPAPPPPRGP	0.66 ± 0.019
HPLLPRPVPLTD	0.665 ± 0.059
HPLPSSHLPPRP	0.75 ± 0.15
HPLPTPSPHLSP	0.728 ± 0.016
HPPLPLPCAFPP	0.7 ± 0.033
HPPLPPPPIVPS	0.696 ± 0.067
HPPLSPPSALFL	0.719 ± 0.069
HPPPPAAKVAPV	0.629 ± 0.048
HPPPTHAQGRLV	0.671 ± 0.021
HPPTSPGGLRQP	0.686 ± 0.0069
HPSRPARPTRHP	0.806 ± 0.072
HPTTHYLPRPAH	0.6779 ± 0.0022
HPVPSPSLRPPP	0.716 ± 0.072
HRCLSRTVSPPS	0.671 ± 0.04
HRKNKYKRKTTK	0.676 ± 0.05
HRVRVRVYTCGF	0.634 ± 0.05
HSGLTGLRRLVA	0.594 ± 0.012
HSLPPPCLHSTP	0.683 ± 0.021
HSPHISAPPLPY	0.588 ± 0.024

Sequence	protein stability index
HSPPPPPALLPL	0.66 ± 0.028
HSPTPLLPPSPS	0.727 ± 0.045
HSRKVHGLWALR	0.695 ± 0.0081
HSSFCIVIRVSR	0.5125 ± 0.001
HTKHSQIIKHQS	0.641 ± 0.03
HTTPGPYVLPWP	0.807 ± 0.06
HVALPAFKQLSG	0.746 ± 0.051
HVLQFQTNIRQN	0.636 ± 0.1
HVLSQSLSALPC	0.681 ± 0.044
HVPGKWTLGFGI	0.761 ± 0.054
HVSINERFKSMY	0.717 ± 0.025
HVTLGRGGVGPN	0.681 ± 0.02
IACGAGGRGFSC	0.721 ± 0.025
IAISAPSLLDTS	0.643 ± 0.026
IALLQRTSSTPD	0.748 ± 0.028
IARLLFPPPGPI	0.643 ± 0.037
IASLVSVCFLRD	0.683 ± 0.029
IASNAENCDVGV	0.695 ± 0.11
ICFGCLSWAGSW	0.554 ± 0.057
ICLLGTSSQRRD	0.705 ± 0.0077
ICPWLLPPSCRS	0.738 ± 0.015
